B1: human MCM8–9 complex, wild type (FLAG-MCM8 with MBP-MCM9, co-expressed) (complex)
chain 1: MNGEYRGRGFGRGRFQSWKRGRGGGNFSGKWREREHRPDLSKTTGKRTSEQTPQFLLSTKTPQSMQSTLDRFIPYKGWKLYFSEVYSDSSPLIEKIQAFEKFFTRHIDLYDKDEIERKGSILVDFKELTEGGEVTNLIPDIATELRDAPEKTLACMGLAIHQVLTKDLERHAAELQAQEGLSNDGETMVNVPHIHARVYNYEPLTQLKNVRANYYGKYIALRGTVVRVSNIKPLCTKMAFLCAACGEIQSFPLPDGKYSLPTKCPVPVCRGRSFTALRSSPLTVTMDWQSIKIQELMSDDQREAGRIPRTIECELVHDLVDSCVPGDTVTITGIVKVSNAEEGSRNKNDKCMFLLYIEANSISNSKGQKTKSSEDGCKHGMLMEFSLKDLYAIQEIQAEENLFKLIVNSLCPVIFGHELVKAGLALALFGGSQKYADDKNRIPIRGDPHILVVGDPGLGKSQMLQAACNVAPRGVYVCGNTTTTSGLTVTLSKDSSSGDFALEAGALVLGDQGICGIDEFDKMGNQHQALLEAMEQQSISLAKAGVVCSLPARTSIIAAANPVGGHYNKAKTVSENLKMGSALLSRFDLVFILLDTPNEHHDHLLSEHVIAIRAGKQRTISSATVARMNSQDSNTSVLEVVSEKPLSERLKVVPGETIDPIPHQLLRKYIGYARQYVYPRLSTEAARVLQDFYLELRKQSQRLNSSPITTRQLESLIRLTEARARLELREEATKEDAEDIVEIMKYSMLGTYSDEFGNLDFERSQHGSGMSNRSTAKRFISALNNVAERTYNNIFQFHQLRQIAKELNIQVADFENFIGSLNDQGYLLKKGPKVYQLQTM
chain 2: not shown
notes: human MCM8; human MCM9; Written as the heterodimer (theoretical 266 kDa with tags; hexamer 798 kDa); in solution a mix of dimers, tetramers and hexamers; also called MCM8-MCM9; FLAG-MCM8-MBP-MCM9 heterodimer complex; source: Sf9 insect cells, co-expressed; hexamer-rich pool with a Superose 6 step) or captured from lysate on amylose resin and washed; not shown: FLAG, N-terminal, kept; MBP, …
B2: HROB-L405D (natural protein, human, UniProt Q8N3J3-4 1-646, looked up)
chain: MACSLQKLFAVEEEFEDEDFLSAVEDAENRFTGSLPVNAGRLRPVSSRPQETVQAQSSRLLLLHPTAPSEALGLPDLDLCLPASSTPSADSRPSCIGAAPLRPVSTSSSWIGNQRRVTVTEVLREPARPQSSALHPLLTFESQQQQVGGFEGPEQDEFDKVLASMELEEPGMELECGVSSEAIPILPAQQREGSVLAKKARVVDLSGSCQKGPVPAIHKAGIMSAQDESLDPVIQCRTPRPPLRPGAVGHLPVPTALTVPTQQLHWEVCPQRSPVQALQPLQAARGTIQSSPQNRFPCQPFQSPSSWLSGKAHLPRPRTPNSSCSTPSRTSSGLFPRIPLQPQAPVSSIGSPVGTPKGPQGALQTPIVTNHLVQLVTAASRTPQQPTHPSTRAKTRRFPGPAGIDPHQQSGRSLEDIMVSAPQTPTHGALAKFQTEIVASSQASVEEDFGRGPWLTMKSTLGLDERDPSCFLCTYSIVMVLRKAALKQLPRNKVPNMAVMIKSLTRSTMDASVVFKDPTGEMQGTVHRLLLETCQNELKPGSVLLLKQIGVFSPSLRNHYLNVTPNNLVHIYSPDSGDGSFLKPSQPFPKDSGSFQHDVAAKPEEGFRTAQNLEAEASPEEELPEADDLDGLLSELPEDFFCGTSS
notes: human HROB as in m1 (closest to isoform 4, lacks Q-484, T126P) with L405D in the disordered region that contacts MCM8

Tests used:
[1] = target: the molecule itself; test: negative staining transmission electron microscopy; human MCM8–9 at 220 nM; ring-like particles, heterodimers to hexameric rings
[2] = target: B1; test: pull-down; MBP-MCM9/FLAG-MCM8 from Sf9 lysate immobilised on amylose resin and washed (300 mM NaCl, 0.1% NP40); incubated with 1 μg purified HROB wild type or mutant in 50 mM Tris-HCl pH 7.5, 100 mM NaCl, 3 mM EDTA, BSA, 1 h at 4 °C; maltose elution, western blot; conditions: both partners purified

Binder | binding result [1] | binding result [2]
B1 | binds | –
B2 | – | binds
